Measurements as given in patent US20070196337A1, “RECOMBINANT PERFORIN, EXPRESSION AND USES THEREOF” (priority 2004, published 2007).

What was measured:
[1] = Lytic activity of purified recombinant (baculovirus) perforin; format: biochemical; conditions: baculovirus expression system
Excerpt: Perforin cDNA was cloned into the pFastBac vector and overexpressed in Sf-21 cells cultured in SF900-II SFM medium using a Bac-to-Bac kit (Invitrogen) and perforin was purified, all according to the manufacturer's instructions. Small amounts of recombinant WT and the G428E perforin mutant protein were obtained.

[2] = Storage stability of purified recombinant perforin at 4° C.; conditions: purified recombinant human perforin, storage at 4° C.

B1: recombinant human A91V: recombinant human A91V perforin from the baculovirus expression system (protein, UniProt P14222 22-555, looked up, variant A91V)
Perforin-1: PCHTAARSECKRSHKFVPGAWLAGEGVDVTSLRRSGSFPVDTQRFLRPDGTCTLCENALQEGTLQRLPLVLTNWRAQGSGCQRHVTRAKVSSTEAVARDAARSIRNDWKVGLDVTPKPTSNVHVSVAGSHSQAANFAAQKTHQDQYSFSTDTVECRFYSFHVVHTPPLHPDFKRALGDLPHHFNASTQPAYLRLISNYGTHFIRAVELGGRISALTALRTCELALEGLTDNEVEDCLTVEAQVNIGIHGSISAEAKACEEKKKKHKMTASFHQTYRERHSEVVGGHHTSINDLLFGIQAGPEQYSAWVNSLPGSPGLVDYTLEPLHVLLDSQDPRREALRRALSQYLTDRARWRDCSRPCPPGRQKSPRDPCQCVCHGSAVTTQDCCPRQRGLAQLEVTFIQAWGLWGDWFTATDAYVKLFFGGQELRTSTVWDNNNPIWSVRLDFGDVLLATGGPLRLQVWDQDSGRDDDLLGTCDQAPKSGSHEVRCNLNHGHLKFRYHARCLPHLGGGTCLDYVPQMLLGEPPGNRSGAVW
modifications: baculovirus-expressed
notes: recombinant human A91V perforin from the baculovirus expression system
cytolytic activity of recombinant protein relative to WT perforin [1]: < 10 % of WT | stability of lytic activity on storage [2]: undetectable levels after 48 hours
